Results: publication PMC9482650, “Quantitative fragmentomics allow affinity mapping of interactomes” (Nature Communications, 2022)
One block for each binder: values may come before it.

Key:
Assay in all cases: holdup assay
Design in all cases: key: below the threshold = too weak to quantify, mostly under pKd 3.1 to 4
Conditions in all cases: plain residues with an end cap or a label only (N-terminal biotin on a linker: ado-ado)
[1] = target: IL16_1, Q14005
[2] = target: NHERF4_1, Q86UT5-2
[3] = target: T1, LIN7A, O14910
T1 sequence (O14910 103-200, limits assumed, looked up): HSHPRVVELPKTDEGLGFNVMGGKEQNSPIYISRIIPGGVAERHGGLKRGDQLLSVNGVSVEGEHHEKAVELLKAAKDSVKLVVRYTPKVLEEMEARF

[4] = target: T2, SNTG2, Q9NY99
T2 sequence (Q9NY99 68-166, limits assumed, looked up): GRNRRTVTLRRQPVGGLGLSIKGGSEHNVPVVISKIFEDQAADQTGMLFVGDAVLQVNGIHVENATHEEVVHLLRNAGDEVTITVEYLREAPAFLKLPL

[5] = target: IL16_3, Q14005
Chain of IL16_3, Q14005 (Q14005 1107-1207): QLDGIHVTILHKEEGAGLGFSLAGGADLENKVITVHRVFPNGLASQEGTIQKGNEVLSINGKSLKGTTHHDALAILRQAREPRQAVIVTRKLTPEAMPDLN

[6] = target: DLG1_2, Q12959
Chain of DLG1_2, Q12959 (Q12959 314-412): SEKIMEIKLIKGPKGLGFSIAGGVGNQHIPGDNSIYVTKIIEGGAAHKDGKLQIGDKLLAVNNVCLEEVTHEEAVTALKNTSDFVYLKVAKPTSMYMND

[7] = target: GRIP2_7, Q9C0E4
Chain of GRIP2_7, Q9C0E4 (Q9C0E4 934-1023): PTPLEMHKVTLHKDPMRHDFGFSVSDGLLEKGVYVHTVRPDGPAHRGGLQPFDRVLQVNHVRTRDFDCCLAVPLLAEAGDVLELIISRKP

[8] = target: T3, PDZD7_3, Q9H5P4
T3 sequence (Q9H5P4 857-944, limits assumed, looked up): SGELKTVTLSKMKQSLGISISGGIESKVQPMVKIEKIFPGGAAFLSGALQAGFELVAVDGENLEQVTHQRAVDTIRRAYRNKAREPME

[9] = target: FRMPD2_3, Q68DX3
Chain of FRMPD2_3, Q68DX3 (Q68DX3 1073-1166): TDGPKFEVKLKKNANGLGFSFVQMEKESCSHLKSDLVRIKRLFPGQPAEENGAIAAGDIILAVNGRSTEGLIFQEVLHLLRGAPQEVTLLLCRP

[10] = target: T4, GRIP1_3, Q9Y3R0
T4 sequence (Q9Y3R0 247-346, limits assumed, looked up): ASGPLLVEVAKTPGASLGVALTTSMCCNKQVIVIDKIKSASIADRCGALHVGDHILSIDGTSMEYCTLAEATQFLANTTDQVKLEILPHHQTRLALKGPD

[11] = target: FRMPD2_1, Q68DX3
Chain of FRMPD2_1, Q68DX3 (Q68DX3 770-861): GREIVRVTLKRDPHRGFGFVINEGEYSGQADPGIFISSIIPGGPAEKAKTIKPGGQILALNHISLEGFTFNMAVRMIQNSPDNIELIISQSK

[12] = target: T5, CARD11, Q9BXL7
T5 sequence (Q9BXL7 662-765, limits assumed, looked up): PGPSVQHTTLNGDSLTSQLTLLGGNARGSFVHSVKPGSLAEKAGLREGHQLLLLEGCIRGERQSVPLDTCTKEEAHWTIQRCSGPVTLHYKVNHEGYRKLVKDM

[13] = target: MAST1, Q9Y2H9
Chain of MAST1, Q9Y2H9 (Q9Y2H9 962-1065): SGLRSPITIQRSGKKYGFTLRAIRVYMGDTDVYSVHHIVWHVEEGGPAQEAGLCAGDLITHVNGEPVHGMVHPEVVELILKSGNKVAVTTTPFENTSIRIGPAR

[14] = target: DLG4_3, P78352
Chain of DLG4_3, P78352 (P78352 306-403): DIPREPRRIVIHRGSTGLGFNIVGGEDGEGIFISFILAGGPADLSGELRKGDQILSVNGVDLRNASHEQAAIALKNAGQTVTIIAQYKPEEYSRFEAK

[15] = target: MAGI1_2, Q96QZ7
Chain of MAGI1_2, Q96QZ7 (Q96QZ7 456-580): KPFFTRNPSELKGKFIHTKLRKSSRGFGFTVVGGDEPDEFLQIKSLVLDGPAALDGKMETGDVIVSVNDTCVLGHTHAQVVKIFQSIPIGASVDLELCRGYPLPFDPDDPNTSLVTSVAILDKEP

[16] = target: T6, SYNJ2BP, P57105
T6 sequence (P57105 8-110, limits assumed, looked up): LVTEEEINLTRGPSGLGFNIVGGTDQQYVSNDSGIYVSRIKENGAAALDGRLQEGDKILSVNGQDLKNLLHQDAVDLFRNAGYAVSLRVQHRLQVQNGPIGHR

[17] = target: GRID2IP_2, A4D2P6
Chain of GRID2IP_2, A4D2P6 (A4D2P6 272-370): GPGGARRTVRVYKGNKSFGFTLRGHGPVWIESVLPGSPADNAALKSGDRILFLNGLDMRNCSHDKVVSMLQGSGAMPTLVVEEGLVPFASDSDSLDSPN

[18] = target: NHERF4_4, Q86UT5
Chain of NHERF4_4, Q86UT5 (Q86UT5 464-550): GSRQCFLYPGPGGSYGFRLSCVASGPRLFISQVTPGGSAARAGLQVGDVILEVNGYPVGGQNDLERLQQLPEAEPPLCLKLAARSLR

[19] = target: DLG4_2, P78352
Chain of DLG4_2, P78352 (P78352 155-259): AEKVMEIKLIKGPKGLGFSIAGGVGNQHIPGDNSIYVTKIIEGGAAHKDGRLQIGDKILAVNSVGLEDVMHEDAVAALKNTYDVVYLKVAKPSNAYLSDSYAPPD

[20] = target: NHERF4_2, Q86UT5
Chain of NHERF4_2, Q86UT5 (Q86UT5 220-308): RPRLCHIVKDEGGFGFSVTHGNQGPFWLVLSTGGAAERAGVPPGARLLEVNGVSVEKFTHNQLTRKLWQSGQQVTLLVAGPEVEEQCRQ

[21] = target: Inadl_2, Q8NI35
Chain of Inadl_2, Q8NI35 (Q8NI35 238-335): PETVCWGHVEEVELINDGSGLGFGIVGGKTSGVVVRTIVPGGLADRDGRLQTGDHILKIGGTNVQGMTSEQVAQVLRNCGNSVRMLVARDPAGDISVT

[22] = target: T7, GRIP1_4, Q9Y3R0
T7 sequence (Q9Y3R0 467-571, limits assumed, looked up): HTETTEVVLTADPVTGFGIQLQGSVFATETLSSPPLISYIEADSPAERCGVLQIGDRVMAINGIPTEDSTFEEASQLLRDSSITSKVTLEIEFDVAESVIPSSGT

[23] = target: T8, GRIP1_7, Q9Y3R0
T8 sequence (Q9Y3R0 999-1096, limits assumed, looked up): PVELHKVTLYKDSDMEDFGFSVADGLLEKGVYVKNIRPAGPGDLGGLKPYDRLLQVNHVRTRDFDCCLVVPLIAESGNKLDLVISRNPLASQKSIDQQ

[24] = target: HTRA2, O43464
Chain of HTRA2, O43464 (O43464 355-458): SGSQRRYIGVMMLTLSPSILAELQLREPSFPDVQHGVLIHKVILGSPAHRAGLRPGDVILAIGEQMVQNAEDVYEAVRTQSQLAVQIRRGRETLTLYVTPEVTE

[25] = target: T9, MPP7, Q5T2T1
T9 sequence (Q5T2T1 134-230, limits assumed, looked up): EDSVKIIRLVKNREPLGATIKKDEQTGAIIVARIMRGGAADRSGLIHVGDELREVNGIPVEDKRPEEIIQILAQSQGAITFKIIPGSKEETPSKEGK

[26] = target: SNX27, Q96L92
[27] = target: T10, DVL3, Q92997
T10 sequence (Q92997 244-331, limits assumed, looked up): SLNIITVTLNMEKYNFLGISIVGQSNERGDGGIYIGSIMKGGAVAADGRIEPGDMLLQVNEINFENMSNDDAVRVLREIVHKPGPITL

[28] = target: GRIP2_4, Q9C0E4
Chain of GRIP2_4, Q9C0E4 (Q9C0E4 446-548): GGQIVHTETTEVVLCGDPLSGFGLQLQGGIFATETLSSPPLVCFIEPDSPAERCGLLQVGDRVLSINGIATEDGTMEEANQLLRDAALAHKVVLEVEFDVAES

Chain of IL16_1, Q14005 (Q14005 210-306): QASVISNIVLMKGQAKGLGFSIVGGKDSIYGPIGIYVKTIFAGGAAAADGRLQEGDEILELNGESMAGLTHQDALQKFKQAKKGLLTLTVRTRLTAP
Chain of NHERF4_1, Q86UT5-2 (Q86UT5 other isoform, or with tags, fused parts or gaps): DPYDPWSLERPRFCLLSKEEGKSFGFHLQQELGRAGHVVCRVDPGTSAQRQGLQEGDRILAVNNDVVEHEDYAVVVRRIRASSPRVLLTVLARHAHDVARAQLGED

B2: GRIA2, P42262 (peptide)
chain: NVYGIESVKI
pKd [1]: below the threshold
pKd [2]: 3.78
pKd [3]: below the threshold
pKd [4]: below the threshold
pKd [5]: below the threshold
pKd [6]: 3.96
pKd [7]: below the threshold
pKd [8]: below the threshold
pKd [9]: 3.49
pKd [10]: below the threshold
pKd [11]: 3.56
pKd [12]: below the threshold
pKd [13]: 4.27
pKd [14]: below the threshold
pKd [15]: below the threshold
pKd [16]: 3.52
pKd [17]: below the threshold
pKd [18]: below the threshold
pKd [19]: 3.73
pKd [20]: below the threshold
pKd [21]: below the threshold
pKd [22]: below the threshold
pKd [23]: below the threshold
pKd [24]: below the threshold
pKd [25]: below the threshold
pKd [26]: below the threshold
pKd [27]: below the threshold
pKd [28]: below the threshold

B3: KIRREL2, Q6UWL6 (peptide)
chain: PSHPRLQTHV
pKd [1]: below the threshold
pKd [2]: 3.62
pKd [3]: below the threshold
pKd [4]: below the threshold
pKd [5]: below the threshold
pKd [6]: 4.65
pKd [7]: below the threshold
pKd [8]: 4.61
pKd [9]: below the threshold
pKd [10]: below the threshold
pKd [11]: below the threshold
pKd [12]: below the threshold
pKd [13]: 4.5
pKd [14]: 3.86
pKd [15]: 4.85
pKd [16]: 4.48
pKd [17]: 4.08
pKd [18]: below the threshold
pKd [19]: 4.48
pKd [20]: below the threshold
pKd [21]: below the threshold
pKd [22]: below the threshold
pKd [23]: below the threshold
pKd [24]: below the threshold
pKd [25]: below the threshold
pKd [26]: below the threshold
pKd [27]: below the threshold
pKd [28]: below the threshold

B5: MTNR1A, P48039 (peptide)
chain: NNNVVKVDSV
pKd [1]: below the threshold
pKd [2]: 3.51
pKd [3]: below the threshold
pKd [4]: below the threshold
pKd [5]: below the threshold
pKd [6]: below the threshold
pKd [7]: below the threshold
pKd [8]: below the threshold
pKd [9]: below the threshold
pKd [10]: below the threshold
pKd [11]: below the threshold
pKd [12]: below the threshold
pKd [13]: below the threshold
pKd [14]: below the threshold
pKd [15]: below the threshold
pKd [16]: below the threshold
pKd [17]: below the threshold
pKd [18]: below the threshold
pKd [19]: below the threshold
pKd [20]: below the threshold
pKd [21]: below the threshold
pKd [22]: below the threshold
pKd [23]: below the threshold
pKd [24]: below the threshold
pKd [25]: below the threshold
pKd [26]: below the threshold
pKd [27]: below the threshold
pKd [28]: below the threshold

Other lines, results leading:

pKd [1]: 3.5
pKd [2]: 4.76
pKd [3]: below the threshold
pKd [4]: 4.23
pKd [5]: below the threshold
pKd [6]: 4.32
pKd [7]: below the threshold
pKd [8]: 4.92
pKd [9]: 3.5
pKd [10]: below the threshold
pKd [11]: 3.54
pKd [12]: below the threshold
pKd [13]: 5.06
pKd [14]: 3.87
pKd [15]: 4.5
pKd [16]: 4.52
pKd [17]: 4.74
pKd [18]: 3.99
pKd [19]: 4.18
pKd [20]: 3.55
pKd [21]: below the threshold
pKd [22]: 3.62
pKd [23]: 3.56
pKd [24]: 3.55
pKd [25]: below the threshold
pKd [26]: 4.93
pKd [27]: below the threshold
pKd [28]: below the threshold
B1: RPS6KA3, P51812 (peptide)
chain: GIKKITSTAL

pKd [1]: below the threshold
pKd [2]: below the threshold
pKd [3]: below the threshold
pKd [4]: 4.51
pKd [5]: below the threshold
pKd [6]: 4.42
pKd [7]: below the threshold
pKd [8]: 4.69
pKd [9]: below the threshold
pKd [10]: below the threshold
pKd [11]: below the threshold
pKd [12]: below the threshold
pKd [13]: 4.14
pKd [14]: below the threshold
pKd [15]: below the threshold
pKd [16]: 3.63
pKd [17]: below the threshold
pKd [18]: below the threshold
pKd [19]: 4.11
pKd [20]: below the threshold
pKd [21]: below the threshold
pKd [22]: below the threshold
pKd [23]: below the threshold
pKd [24]: below the threshold
pKd [25]: 3.48
pKd [26]: 4.74
pKd [27]: below the threshold
pKd [28]: below the threshold
B4: SLC16A7, O60669 (peptide)
chain: SVTSERETNI
